{"source": "the RNAGym collection of RNA variant scans (doi:10.1073/pnas.2313332121)", "parents": {"B1": {"name": "TPR t1 (parent)", "chain": "GACCAAUCUGCCCUCAGAGCUCGAGAACAUCUUCGGAUGCAGAGGAGGCAGGCUUCGGUGGCGCGAUAGCGCCAACGUCCUCAACCUCCAAUGCAUCCCACCACAUGAUGAUGCCUGAAGAGCCUUGGUUUUUUG"}}}
{"variants_of": "B1", "test": "polymerase ribozyme fitness, log enrichment relative to wild type (log ratio); higher = more active; in vitro selection for triplet polymerase activity", "how_it_was_run": "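Mutant libraries of both subunits of a heterodimeric triplet polymerase ribozyme were PCR-built, transcribed, and selected once in triplicate, with frozen incubation at −7 °C and capture of gel-excised extended constructs on streptavidin beads before RT-PCR. Illumina sequencing of input and output libraries was filtered to genotypes with ≥10 input reads and ≥1 read per output. Fitness is the logarithm of genotype enrichment over wild-type enrichment, using inverse-variance-weighted replicate averages. The logarithm is base 2.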"}
{"variant": "C80U C115A G120A U125A", "polymerase ribozyme fitness (log ratio)": -1.71}
{"variant": "A29C G51A", "polymerase ribozyme fitness (log ratio)": -6.28}
{"variant": "G61C U92A", "polymerase ribozyme fitness (log ratio)": -4.11}
{"variant": "C64U C94U C102G", "polymerase ribozyme fitness (log ratio)": -7.24}
{"variant": "C12G C64G C123G", "polymerase ribozyme fitness (log ratio)": -6.23}
{"variant": "C12G A16C C64U", "polymerase ribozyme fitness (log ratio)": -2.46}
{"variant": "C11G C115U U130A", "polymerase ribozyme fitness (log ratio)": -0.677}
{"variant": "C8U A18C A41U A50G C101U", "polymerase ribozyme fitness (log ratio)": -2.01}
{"variant": "C12U C13G C49U C53U G127A", "polymerase ribozyme fitness (log ratio)": -3.32}
{"variant": "A2G C11U G48C U92A", "polymerase ribozyme fitness (log ratio)": -4.56}
{"variant": "A50U C115G A121C G128U", "polymerase ribozyme fitness (log ratio)": -4.2}
{"variant": "A43U A50U U81A A91G U92G", "polymerase ribozyme fitness (log ratio)": -3.02}
{"variant": "G47U G135U", "polymerase ribozyme fitness (log ratio)": -2.02}
{"variant": "A66C U78C", "polymerase ribozyme fitness (log ratio)": -1.36}
{"variant": "U21A G42A A46U G60A", "polymerase ribozyme fitness (log ratio)": -4.47}
{"variant": "C11G A26C G60U C97U G120U U132A", "polymerase ribozyme fitness (log ratio)": -3.92}
{"variant": "C22G C34G C70A C123A", "polymerase ribozyme fitness (log ratio)": -6.39}
{"variant": "C70U C72U", "polymerase ribozyme fitness (log ratio)": 0.27}
{"variant": "U92A A121U", "polymerase ribozyme fitness (log ratio)": -0.332}
{"variant": "C53A C73A U116A", "polymerase ribozyme fitness (log ratio)": -3.87}
{"variant": "A66C C85U C86U C97U", "polymerase ribozyme fitness (log ratio)": -3.15}
{"variant": "G39C G120A", "polymerase ribozyme fitness (log ratio)": 0.0157}
{"variant": "C12A A50U G61C U78C C85U C124U", "polymerase ribozyme fitness (log ratio)": -6.64}
{"variant": "U9G U109A G120C", "polymerase ribozyme fitness (log ratio)": -4.55}
{"variant": "A50U G52U", "polymerase ribozyme fitness (log ratio)": -2.39}
{"variant": "U59A C62U C82U G120A", "polymerase ribozyme fitness (log ratio)": 0.193}
{"variant": "C8G G93A", "polymerase ribozyme fitness (log ratio)": -0.604}
{"variant": "A83U U132C", "polymerase ribozyme fitness (log ratio)": -0.0917}
{"variant": "C20A C86A U112C G117A", "polymerase ribozyme fitness (log ratio)": -5.64}
{"variant": "G10C U38G C85U G122A C123G", "polymerase ribozyme fitness (log ratio)": 0.725}
{"variant": "G48C G127C", "polymerase ribozyme fitness (log ratio)": -1.62}
{"variant": "C34U A105G G120A", "polymerase ribozyme fitness (log ratio)": -5.77}
{"variant": "G63U C72G", "polymerase ribozyme fitness (log ratio)": -3.89}
{"variant": "A16U G17A C49U G57U A90U", "polymerase ribozyme fitness (log ratio)": -5.5}
{"variant": "C72G A84C", "polymerase ribozyme fitness (log ratio)": -0.56}
{"variant": "G10C C49A G51C G57C C72U C115G", "polymerase ribozyme fitness (log ratio)": -3.99}
{"variant": "A2U U9A A26C G60A G117U", "polymerase ribozyme fitness (log ratio)": -6.53}
{"variant": "C8A A50G A95C", "polymerase ribozyme fitness (log ratio)": 0.286}
{"variant": "C11A C89U", "polymerase ribozyme fitness (log ratio)": -2.53}
{"variant": "A6G C28U", "polymerase ribozyme fitness (log ratio)": -0.918}
{"variant": "C13U C115U", "polymerase ribozyme fitness (log ratio)": -0.41}
{"variant": "G35U C72U G117C", "polymerase ribozyme fitness (log ratio)": -7.07}
{"variant": "C28U G52C G61A U106A U112A", "polymerase ribozyme fitness (log ratio)": -1.95}
{"variant": "C56U G120A", "polymerase ribozyme fitness (log ratio)": 0.719}
{"variant": "A6U U54G C70A", "polymerase ribozyme fitness (log ratio)": -3.12}
{"variant": "C102U G122A", "polymerase ribozyme fitness (log ratio)": -2.08}
{"variant": "C11G U59C", "polymerase ribozyme fitness (log ratio)": 1.4}
{"variant": "G52C U59C G60U A66G", "polymerase ribozyme fitness (log ratio)": -5.6}
{"variant": "C72G C88G U96G", "polymerase ribozyme fitness (log ratio)": -2.68}
{"variant": "U14A U21A U30G G58C C76U U112C A118C", "polymerase ribozyme fitness (log ratio)": -5.04}
{"variant": "G61U A74C C123G", "polymerase ribozyme fitness (log ratio)": -5.28}
{"variant": "C22G C53G C123G", "polymerase ribozyme fitness (log ratio)": -2.61}
{"variant": "A5U G69U", "polymerase ribozyme fitness (log ratio)": 0.406}
{"variant": "A27G C56A C104U", "polymerase ribozyme fitness (log ratio)": -2.14}
{"variant": "C4A C8G A18C G23C U112G U116A", "polymerase ribozyme fitness (log ratio)": -5.14}
{"variant": "C28G G45U", "polymerase ribozyme fitness (log ratio)": -4.17}
{"variant": "U32G G35A C98A C99U U109A", "polymerase ribozyme fitness (log ratio)": -6.04}
{"variant": "C62G C85A C102U A121U C124U", "polymerase ribozyme fitness (log ratio)": -4.13}
{"variant": "G36U A37C C104U", "polymerase ribozyme fitness (log ratio)": -1.76}
{"variant": "C34G G48A G52C A84U G120A", "polymerase ribozyme fitness (log ratio)": -6.12}
{"variant": "A16U G17C C73U", "polymerase ribozyme fitness (log ratio)": -3.41}
{"variant": "A18U G61A", "polymerase ribozyme fitness (log ratio)": -1.19}
{"variant": "C89A C123U U129A", "polymerase ribozyme fitness (log ratio)": -1.73}
{"variant": "G10A G17C C56U", "polymerase ribozyme fitness (log ratio)": -2.35}
{"variant": "G36U A68C C70U U87A G117U", "polymerase ribozyme fitness (log ratio)": -5.69}
{"variant": "C72A A103U", "polymerase ribozyme fitness (log ratio)": -4.58}
{"variant": "C49G G52C", "polymerase ribozyme fitness (log ratio)": -0.352}
{"variant": "U54G G69C", "polymerase ribozyme fitness (log ratio)": -6.2}
{"variant": "C15U A50U G71A C89U", "polymerase ribozyme fitness (log ratio)": -5.22}
{"variant": "G45A G48U C53G C72A", "polymerase ribozyme fitness (log ratio)": -0.719}
{"variant": "A83G G120U", "polymerase ribozyme fitness (log ratio)": -0.6}
{"variant": "G110U G117A", "polymerase ribozyme fitness (log ratio)": -2.69}
{"variant": "A74C A95U G113U U125A", "polymerase ribozyme fitness (log ratio)": -4.37}
{"variant": "G63U C99U U106A", "polymerase ribozyme fitness (log ratio)": -3.55}
{"variant": "C11G G63U C85U U87C G110A", "polymerase ribozyme fitness (log ratio)": -2.67}
{"variant": "U9A G10A A46U G69U C79U C102G", "polymerase ribozyme fitness (log ratio)": -3.8}
{"variant": "U59G C72U U106G U112A G128C", "polymerase ribozyme fitness (log ratio)": -4.15}
{"variant": "A5U A41U C82G G120A U125G", "polymerase ribozyme fitness (log ratio)": -2.77}
{"variant": "A46C C115G", "polymerase ribozyme fitness (log ratio)": -2.59}
{"variant": "A5G C11A C70A G71A A121C G122U G127A", "polymerase ribozyme fitness (log ratio)": -3.67}
{"variant": "C62U G122A", "polymerase ribozyme fitness (log ratio)": -0.839}
{"variant": "C28G C49U U92A G110A", "polymerase ribozyme fitness (log ratio)": -5.35}
{"variant": "A90C C124U", "polymerase ribozyme fitness (log ratio)": 0.931}
{"variant": "G61U A95G C124U", "polymerase ribozyme fitness (log ratio)": 1.97}
